The text below walks through data of publication PMC2785718, “Structure/function studies of dogfish α-crystallin, comparison with bovine α-crystallin” (Molecular Vision, 2009).

One assay has as its target T1, dogfish αB-crystallin (spiny dogfish (endogenous in lens), UniProt P02512 1-177).
T1 construct: αB-crystallin polypeptide of spiny dogfish lens α-crystallin; native subunit, not separated from αA-crystallin; tryptophan at positions 9, 49 and 63; Native polypeptide from lens; It accounts for >80% of dogfish α-crystallin; also called αB polypeptide; αB subunit
T1 sequence (looked up): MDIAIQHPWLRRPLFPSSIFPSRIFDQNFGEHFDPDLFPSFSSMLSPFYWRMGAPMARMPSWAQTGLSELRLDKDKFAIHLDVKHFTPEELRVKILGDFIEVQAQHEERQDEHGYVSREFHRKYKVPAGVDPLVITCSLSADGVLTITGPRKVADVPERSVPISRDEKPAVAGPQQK
The assay can be described thus: SEC; gel filtration of lens extract on Sephacryl S300 in phosphate buffered saline with sodium azide, pH 7.2, room temperature; central 50% of the α-crystallin peak rechromatographed; size by comparison with known proteins; subunits of the isolated native hetero-oligomer by SDS-PAGE (only α-crystallin polypeptides present). The settings on record: both partners purified. For orientation: Size exclusion chromatography separates by hydrodynamic size, large species first.

Another assay has as its target T2, bovine αB-crystallin (bovine (endogenous in lens), UniProt P02510 1-175).
T2 construct: αB-crystallin polypeptide of bovine lens α-crystallin; native subunit, not separated from αA-crystallin; Native polypeptide from lens; also called bovine αB-crystallin polypeptide
T2 sequence (looked up): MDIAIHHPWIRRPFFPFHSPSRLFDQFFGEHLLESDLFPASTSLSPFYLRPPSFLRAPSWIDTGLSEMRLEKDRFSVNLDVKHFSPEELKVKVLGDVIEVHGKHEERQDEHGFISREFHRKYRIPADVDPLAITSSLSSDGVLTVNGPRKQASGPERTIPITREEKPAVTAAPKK
Described as above. The following applies: both partners purified.

B1: dogfish αA-crystallin (natural protein, spiny dogfish (endogenous in lens), UniProt P02509 1-177, looked up)
chain: MDLAIQYPWFRRSLGSFYPSRLFDQFFGEGLFDYDLFPFFSSTISPYYRQSVFRNFLDSGISEVRSEKDRFMINLNVKHFSPEELSVKIVDDYVEIHGKHAERQEDQGRVSREFHRTYHLPSNLNESAIACSLSNEGLLTLCCPKTRPGDDSNWQDRPIPVSREEKQGTQPEIRADP
notes: αA-crystallin polypeptide of spiny dogfish lens α-crystallin; native subunit, not separated from αB-crystallin; tryptophan at positions 9 and 154; Native polypeptide from lens; also called αA chain; αA-crystallin subunit
For the molecule B1, the “stoichiometry N” value with dogfish αB-crystallin is ~0.2 αA:αB.

B2: bovine αA-crystallin (natural protein, bovine (endogenous in lens), UniProt P02470 1-173, looked up)
chain: MDIAIQHPWFKRTLGPFYPSRLFDQFFGEGLFEYDLLPFLSSTISPYYRQSLFRTVLDSGISEVRSDRDKFVIFLDVKHFSPEDLTVKVQEDFVEIHGKHNERQDDHGYISREFHRRYRLPSNVDQSALSCSLSADGMLTFSGPKIPSGVDAGHSERAIPVSREEKPSSAPSS
notes: αA-crystallin polypeptide of bovine lens α-crystallin; native subunit, not separated from αB-crystallin; Native polypeptide from lens; also called bovine αA chain; bovine αA-crystallin subunit
In the case of B2, the binding result with bovine αB-crystallin is reported as “binds”.
